Results as given in publication PMC9890643.

Biological target: apolipoprotein A-1 (ApoA1) (UniProt P02647 25-267)
Experiment: electrochemical aptasensor

Chain of apolipoprotein A-1 (ApoA1) (P02647 25-267): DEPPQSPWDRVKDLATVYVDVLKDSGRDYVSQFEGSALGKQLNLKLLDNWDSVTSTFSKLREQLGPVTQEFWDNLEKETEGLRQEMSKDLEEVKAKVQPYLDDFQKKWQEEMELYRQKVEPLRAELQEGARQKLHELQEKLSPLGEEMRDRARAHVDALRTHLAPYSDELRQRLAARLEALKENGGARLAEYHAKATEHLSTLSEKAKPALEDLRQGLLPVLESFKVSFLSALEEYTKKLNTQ

**Q.** Does CCTCGGCACGTTCTCAGTAGCGCTCGCTGGTCATCCCACA (ssDNA, 5'-thiol-C6) [ApoA1 thiolated aptamer] bind?
**A.** Result: binds
